According to patent US9012407B2, “Therapies which act on neuropeptide S receptors” (The Regents of the University of California, priority 2004, dated 2015):
Where no end group is shown, it is not given here. The star is where a group is joined. 125I = radioactive iodine-125 label on the tyrosine, [125I]*

How the values were obtained:
rodents = settings: cited from earlier work
[1] = single i.c.v. injection; cited from earlier work
[2] = molecular target: human Neuropeptide S receptor, wildtype (NPSR WT) (human) (UniProt Q6W5P4); assay: cell-based or functional assay
NPSR WT = molecular target: T1, NPSR WT (Homo sapiens, UniProt Q6W5P4); assay: Intracellular Ca2+ mobilization (FLIPR) in HEK 293 cells stably expressing NPSR WT; format: cell-based; settings: for agonist potency compared to the human peptide: Ca2+ mobilization; for agonist activity, Ca2+ mobilization: individual HEK 293 clone
T1 construct: The primary structure of the wildtype NPSR (NPSR WT) is identical to isoform A of GPRA; expressed in transfected cells
T1 sequence (Q6W5P4 1-371): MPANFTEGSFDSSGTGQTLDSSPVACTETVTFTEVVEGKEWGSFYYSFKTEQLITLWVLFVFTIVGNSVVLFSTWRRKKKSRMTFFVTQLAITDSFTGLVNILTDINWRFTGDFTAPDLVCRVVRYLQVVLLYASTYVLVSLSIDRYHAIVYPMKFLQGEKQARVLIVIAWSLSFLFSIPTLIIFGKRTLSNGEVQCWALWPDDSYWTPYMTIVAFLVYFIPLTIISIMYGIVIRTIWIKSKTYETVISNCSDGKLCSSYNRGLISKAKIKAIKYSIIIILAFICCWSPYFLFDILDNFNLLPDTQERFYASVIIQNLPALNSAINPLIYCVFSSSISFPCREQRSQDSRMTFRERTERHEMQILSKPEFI
Method: (§1) Changes of agonist-induced intracellular Ca^2+ were measured using the FLIPR technology as described before (5, 6). NPS and truncated NPS peptides were a gift from Phoenix Pharmaceuticals (Belmont, Calif.). Dose-response curves were calculated using GraphPad Prism (Graph Pad, San Diego). Mean EC50 values of populations of stable clones expressing either wildtype or mutant NPSR were compared using unpaired t-test and p<0.05 was considered significant.
(§2) Two cells lines expressing similar levels (measured by radioligand binding; see below) of either NPSR WT or NPSR Ile were chosen for detailed analyses of pharmacological parameters. […] In order to investigate whether this tenfold increase in agonist potency at NPSR lie was a general property of the receptor protein we compared a large number of stable clones expressing either NPSR WT or NPSR Ile^107 by establishing dose-response curves for each construct and calculating mean EC50 values for the populations.

human NPSR = molecular target: T2, human NPSR (Homo sapiens, UniProt Q6W5P4); assay: Mobilization of intracellular Ca2+ (FLIPR) in HEK 293T cells stably expressing human NPSR; format: cell-based; settings: for EC50: HEK 293T cells stably expressing human NPSR, read-out: EC50 for mobilization of [Ca2+]i
T2 construct: This receptor protein is identical to the NPSR that we have studied extensively for its pharmacology; expressed in transfected cells
T2 sequence (Q6W5P4 1-371): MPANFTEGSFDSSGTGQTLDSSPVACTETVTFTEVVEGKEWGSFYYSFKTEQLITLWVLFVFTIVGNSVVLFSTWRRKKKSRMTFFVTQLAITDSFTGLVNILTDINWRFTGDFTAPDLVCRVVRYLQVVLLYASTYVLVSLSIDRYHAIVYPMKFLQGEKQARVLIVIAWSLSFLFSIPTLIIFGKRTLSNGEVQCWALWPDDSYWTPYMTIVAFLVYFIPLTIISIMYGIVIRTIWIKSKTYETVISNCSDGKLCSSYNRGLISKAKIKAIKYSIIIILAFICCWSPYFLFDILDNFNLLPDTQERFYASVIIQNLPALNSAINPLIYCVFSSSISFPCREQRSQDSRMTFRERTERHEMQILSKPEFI
Method: Cell lines stably expressing human NPSR in both Chinese hamster ovary (CHO) cells and human embryonic kidney 293 T cells (HEK 293T) were used to define the pharmacological characteristics of NPS. […] HEK 293T cells and CHO dhfr(−) cells were transfected with the human NPSR cDNA cloned into pcDNA 3.1(+) using LipofectAmine. Stable clones were selected with 800 mg/l G418 and tested for mobilization of intracellular Ca^2+ with 100 nM NPS (generous gift of Phoenix Pharmaceuticals, Belmont, Calif.). Changes in intracellular Ca^2+ were measured in a fluorometric imaging plate reader system (FLIPR, Molecular Devices) as described before(Saito et al., 1999). Dose response curves for agonist activation were calculated from peak fluorescence values of triplicate incubations and EC50 values were calculated with Prism software (GraphPad, San Diego, Calif.).

NPSR Ile^107 = molecular target: T3, NPSR Ile^107 (Homo sapiens, UniProt Q6W5P4, N107I); assay: Intracellular Ca2+ mobilization (FLIPR) in HEK 293 cells stably expressing NPSR Ile107; format: cell-based; settings: for agonist potency compared to the human peptide: Ca2+ mobilization; for agonist activity, Ca2+ mobilization: individual HEK 293 clone
T3 construct: The Ile^107 isoform of NPSR was generated by PCR using synthetic oligonucleotides and the Quik Change Site-Directed Mutagenesis kit from Stratagene; expressed in transfected cells
T3 sequence (Q6W5P4 1-371 N107I): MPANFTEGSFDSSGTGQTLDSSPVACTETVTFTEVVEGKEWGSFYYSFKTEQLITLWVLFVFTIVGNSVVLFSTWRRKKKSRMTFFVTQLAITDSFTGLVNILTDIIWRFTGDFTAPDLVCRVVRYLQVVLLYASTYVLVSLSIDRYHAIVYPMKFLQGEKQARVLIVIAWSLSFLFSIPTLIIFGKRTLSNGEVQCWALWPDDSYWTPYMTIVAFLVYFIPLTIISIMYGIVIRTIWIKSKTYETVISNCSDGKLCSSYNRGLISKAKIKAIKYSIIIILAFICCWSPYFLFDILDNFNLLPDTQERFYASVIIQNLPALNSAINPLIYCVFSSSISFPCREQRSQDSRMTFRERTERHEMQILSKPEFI
Method: as §1, §2

[3] = molecular target: T4, human Neuropeptide S receptor, wildtype (NPSR WT) (human, UniProt Q6W5P4 1-371); assay: saturation radioligand binding to intact CHO cells stably expressing hNPSR
T4 construct: Stably expressed in CHO dhfr(-), HEK 293T or HEK 293 cells; also called hNPSR; human NPSR
T4 sequence: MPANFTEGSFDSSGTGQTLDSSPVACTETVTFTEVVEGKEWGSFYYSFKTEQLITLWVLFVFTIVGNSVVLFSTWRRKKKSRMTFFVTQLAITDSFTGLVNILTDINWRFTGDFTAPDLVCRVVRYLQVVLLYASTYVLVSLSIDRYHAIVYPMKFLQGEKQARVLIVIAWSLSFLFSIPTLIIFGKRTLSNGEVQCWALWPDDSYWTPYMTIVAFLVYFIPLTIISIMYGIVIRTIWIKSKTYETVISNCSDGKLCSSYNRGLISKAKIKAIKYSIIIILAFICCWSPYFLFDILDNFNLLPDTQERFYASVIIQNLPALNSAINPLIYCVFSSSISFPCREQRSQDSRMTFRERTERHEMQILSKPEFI
Method: (§3) The monoiodinated form of Y^10-NPS was used as a radioligand in receptor binding experiments. […] No specific binding was detected in mock-transfected CHO cells.
(§4) CHO cells stably expressing human NPSR were seeded into 24-well plates and cultured for 48 hours. […] Nonspecific binding was determined in the presence of 1 µM unlabeled human NPS. The binding assay was carried out as described (Sakurai et al., 1998). In brief, cells were washed with PBS first and then incubated with radioligand with or without unlabeled NPS peptide in DMEM medium containing 0.1% bovine serum albumin at 20° C. for 1.5 h. Cells were washed 5 times with cold PBS and lysed with 1 N NaOH. Bound radioactivity was counted in a MicroBeta liquid scintillation counter (EG&G Wallac, Gaithersburg, Md.) and corrected for counting efficiency. Data from triplicate incubations were analyzed using PRISM.

[4] = molecular target: T5, human Neuropeptide S receptor Ile107 isoform (NPSR Ile107) (human, UniProt Q6W5P4 1-371); assay: saturation binding of [125I] Y10-NPS to stable clones, intact cells, average of n=4 clones
T5 construct: also called NPSR lie; Asn107Ile variant
T5 sequence: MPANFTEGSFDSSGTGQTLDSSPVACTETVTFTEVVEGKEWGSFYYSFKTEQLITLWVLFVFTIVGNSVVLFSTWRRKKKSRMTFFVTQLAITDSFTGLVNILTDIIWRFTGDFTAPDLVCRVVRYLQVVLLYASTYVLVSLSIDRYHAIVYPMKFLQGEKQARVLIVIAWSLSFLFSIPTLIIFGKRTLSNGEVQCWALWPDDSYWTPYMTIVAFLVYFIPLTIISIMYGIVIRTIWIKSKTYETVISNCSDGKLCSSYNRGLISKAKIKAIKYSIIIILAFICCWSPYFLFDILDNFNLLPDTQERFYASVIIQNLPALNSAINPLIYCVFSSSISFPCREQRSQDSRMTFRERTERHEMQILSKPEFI

[5] = molecular target: T4, human Neuropeptide S receptor, wildtype …; assay: as above
[6] = molecular target: T5, human Neuropeptide S receptor Ile107 …; assay: saturation binding of [125I] Y10-NPS to stable clones, intact cells
[7] = molecular target: T4, human Neuropeptide S receptor, wildtype …; assay: as above
[8] = molecular target: T5, human Neuropeptide S receptor Ile107 …; assay: cell-based or functional assay
[9] = molecular target: T4, human Neuropeptide S receptor, wildtype …; assay: cell-based or functional assay
[10] = molecular target: T4, human Neuropeptide S receptor, wildtype …; assay: displacement of 0.15 nM [125I] Y10-NPS from CHO cells stably expressing hNPSR by unlabeled human NPS
Method: as §3, §4

[11] = molecular target: human Neuropeptide S receptor C-terminal splice variant (NPSR C-alt) (human), Q6W5P4; assay: cell-based or functional assay

Hcrt/Ox: neuropeptide hypocretin 1/orexin A, literature comparison (QPLPDCCRQKTCSCRLYELLHGAGNHAAGILTL; ends and bridges not checked; cysteine pairing not given here; UniProt O43612 34-66, looked up)
effect on anxiety-like behavior (rodents): no effect
duration of arousal [1]: 2 to 3 h

rat Neuropeptide S (from UniProt P0C0P7 70-89)
EC50 for mobilization of [Ca2+]i, HEK 293T cells stably expressing human NPSR [2]: 3.2 nM

SFRNGVGSGVKKTSFRRAKQ [rat NPS]
agonist potency compared to the human peptide (NPSR WT): slightly more potent
EC50 (human NPSR): 3.2 ± 1.1 nM
agonist potency compared to the human peptide (NPSR Ile^107): slightly more potent

mouse Neuropeptide S (from UniProt P0C0P8 70-89)
EC50 for mobilization of [Ca2+]i, HEK 293T cells stably expressing human NPSR [2]: 3 nM

NPS 1-10: human NPS fragment, residues 1-10, after deletion of the two lysines at positions 11 and 12 (SFRNGVGTGM)
agonist activity, Ca2+ mobilization (NPSR WT): full agonist activity
agonist activity, Ca2+ mobilization (NPSR Ile^107): full agonist activity

SFRNGVGSGAKKTSFRRAKQ [mouse NPS]
agonist potency compared to the human peptide (NPSR WT): slightly more potent
EC50 (human NPSR): 3 ± 1.3 nM
agonist potency compared to the human peptide (NPSR Ile^107): slightly more potent

H-SFRNGVGTGYKKTSFQRAKS-OH [Human Y^10-NPS]
agonist activity (human NPSR; human NPSR, Ca2+ mobilization): full agonist activity

NPS 1-12: carboxy-terminally truncated fragment of human NPS, residues 1-12 (SFRNGVGTGMKK)
antagonist activity against activation by NPS 1-20 (NPSR WT): failed to block activation
agonist activity, Ca2+ mobilization (NPSR WT): almost completely lost agonist activity
antagonist activity against activation by NPS 1-20 (NPSR Ile^107): failed to block activation
agonist activity, Ca2+ mobilization (NPSR Ile^107): full, but weakly potent, agonist

NPS 4-20: human NPS fragment with the three amino-terminal amino acids deleted (NGVGTGMKKTSFQRAKS)
agonist activity, Ca2+ mobilization (NPSR WT): completely abolished agonist activity
agonist activity, Ca2+ mobilization (NPSR Ile^107): completely abolished agonist activity

B1: [125I] Y10-hNPS (monoiodinated human Y10-NPS radioligand) (peptide)
peptide: SFRNGVGTGY(125I)KKTSFQRAKS
modifications: also: monoiodinated with 125I (chloramine T)
notes: Human NPS in which the residue at position 10 is replaced by tyrosine, then radioiodinated; also called Y10-NPS; the radioligand
Kd [3]: 0.33 nM
Kd [4]: 0.403 nM
Kd [5]: 0.347 nM
Kd [6]: 0.17 to 0.4 nM
Kd [7]: 0.2 to 0.45 nM

B2: human Neuropeptide S (hNPS) (peptide)
peptide: SFRNGVGTGMKKTSFQRAKS-OH
notes: 20-residue mature peptide with free C-terminus (-OH); also called human NPS; NPS 1-20
EC50, CRE-luciferase reporter, transiently transfected HEK 293 cells [8]: 17.3 nM
EC50, MAPK phosphorylation, stable HEK cells [8]: 0.32 nM
EC50, cAMP formation, stable HEK clone [8]: 3.45 nM
EC50, intracellular free Ca2+, single stable HEK 293 clone [8]: 1.4 nM
mean EC50, NPS-induced CRE-luciferase reporter gene expression, n=21 stable HEK clones [8]: 0.63 nM
mean EC50, NPS-induced mobilization of intracellular Ca2+, n=21 stable clones [8]: 1.01 nM
EC50, CRE-luciferase reporter, transiently transfected HEK 293 cells [9]: 76.6 nM
EC50, MAPK phosphorylation, stable HEK cells [9]: 1.23 nM
EC50, cAMP accumulation, stable HEK clone [9]: 31.9 nM
EC50, increase in intracellular Ca2+ in cells stably expressing NPSR WT [9]: 5 to 10 nM
EC50, intracellular free Ca2+, single stable HEK 293 clone [9]: 12.4 nM
EC50 for mobilization of [Ca2+]i, HEK 293T cells stably expressing human NPSR [9]: 9.4 nM
mean EC50, NPS-induced CRE-luciferase reporter gene expression, n=7 stable HEK clones [9]: 45.1 nM
mean EC50, NPS-induced mobilization of intracellular Ca2+, n=16 stable clones [9]: 13 nM
IC50 [10]: 0.42 nM
EC50, CRE-luciferase reporter, transiently transfected HEK 293 cells [11]: 146 nM

B3: Human Y10-NPS (unlabeled) (peptide)
peptide: SFRNGVGTGYKKTSFQRAKS
EC50, agonist activity (Ca2+ mobilization, data not shown) [9]: 6.7 nM
